Experimental data published in the RNAGym collection of RNA variant scans (doi:10.1073/pnas.2313332121).
This sample holds only a part of the variants without activity.

B1: TPR 5TU (parent)
chain: GGAUCUUCUCGAUCUAACAAAAAAGACAAAUCUGCCACAAAGCUUGAGAGCAUCUUCGGAUGCAGAGGCGGCAGCCUUCGGUGGCGCGAUAGCGCCAACGUUCUCAACUAUGACACGCAAAACGCGUGCUCCGUUGAAUGGAGUUUAUCAUG

Variants of: B1
Test: polymerase ribozyme fitness, log enrichment relative to wild type (log ratio); higher = more active; in vitro selection for triplet polymerase activity
Summary of the method: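 Streptavidin-bead capture of gel-excised extended constructs, followed by RT-PCR, closed a single triplicate in vitro selection round. That round began by annealing PCR-built, transcribed mutant libraries of each subunit of a heterodimeric triplet polymerase ribozyme with a biotinylated primer, the partner subunit and triplets, then incubating them frozen at −7 °C. After Illumina sequencing of inputs and outputs, genotypes needed ≥10 input reads and ≥1 read per output. Fitness is the base-2 logarithm of genotype enrichment over wild-type enrichment, using inverse-variance-weighted replicate averages.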

Question: Which “polymerase ribozyme fitness (log ratio)” value does the source give for GGAUCUUGUCUAUCUAACAAAAAAGACAAAUCUGCCACAAAGCUUGAGAACAUCUUCGGAUGCAGAGGCGGCAGCCUUCGGUGGCGCGAUAGCGCCAACGUUCUCAACUAUGACAGGCAAAACGCGUGCUCCGUUGAAUGGAGUUGAUCAUG [C8G G11U G50A C116G U146G] here?
Answer: Its value is ≤ -4.2.

Question: For GGAUCUUGUCGAUCUAACAAAAAAGACAAAUCUGCCACAAAGCUUGCGAGCAUCUUCGGAUGCAGAGGCGGCAGCCUUCGCUGCCUCGAUAGCGCCAACGUUCUCAACUAUGACACGCAAAACGCGUGCUCCGUUGAAUGGAGUUUAUCAUG [C8G A47C G81C G84C G86U], which “polymerase ribozyme fitness (log ratio)” value is on record?
Answer: Its value is ≤ -4.2.

Question: Which “polymerase ribozyme fitness (log ratio)” value does the source give for GGAUCUUGUCGAUCUAACAAAAACGACAAAUCUGCCACAAAGCUUGAGAGCAUCUUCGGAUGCAUAGGCGGCAGCCUUCGGUGGCGAGAUAGCGUCAACGUUCUGAACUAUGACACGCAAAACGCGUGCUCCGUUGAAUGGAGUUUAUCAUG [C8G A24C G65U C87A C95U C105G] here?
Answer: The value was ≤ -4.2.

Question: For GGAUCUUGUCGAUCUAACAAAAAAGACAAAUCUGCCACAUAGCUUGAGAGCAACUUCGGAUGCAGAGGCGGCAGCCUUCGGUGGCGAGAUAGCGCCAACGUUCUCAAGUAUGACACGCAAAACGCGUGCUCCGUUGAAUGGAGUUUAUCAUG [C8G A40U U53A C87A C108G], which “polymerase ribozyme fitness (log ratio)” value is on record?
Answer: Its value is ≤ -4.2.

Question: Which “polymerase ribozyme fitness (log ratio)” value does the source give for GGAUCUUGUCGAUCUAACAAAAAAGACAAAUCUGCCACAAAGCUUGAGAGCAUCUUCAGAUGCAGAGGCGGCAGCCUUCGGUGGCGCGAUAGCGCCAACGUUCUCAACUAUGACACGCAAAACGCGUGCUCCGUUGAAUGGAGUUUAUCAUG [C8G G58A] here?
Answer: Its value is -3.1.

Question: With GGAUCUUGUCGAUCUAACAAAAAAGACAAAUCUGCCACAAAGCUUGAGAGCAUUUUCGGAUGCAGAGGCGGCAGCCUUCGGUGGCGCGAUAGCGCCAACGUUCUCAACUAUGACACGCAAAACGCGUGCUCCGUUGAAUGGAGUUUAUCAUG [C8G C54U] as the variant, how does the “polymerase ribozyme fitness (log ratio)” value read?
Answer: Its value is -3.66.

Question: For GGAUCUUGUCGAUCUAACAAAAAUGGCAAAUCUGCCACAAAGCUUGAGAGCCUCUUCGGAUGCAGAGGCGGCAGCCUUCGGUGGCGCGAUAGGGCCAACGUUCUCAACUAUGACACGCAAAACGCGUGCUCCGUUGAAUGGAGUUUAUCAUG [C8G A24U A26G A52C C93G], which “polymerase ribozyme fitness (log ratio)” value is on record?
Answer: Its value is ≤ -4.2.

Question: With GGAUCUUGUCGAUCUAACAAAAAAGACAAAUCUGCCACAAAGCUUGAGAGCAUCUUCGGAUGCAGAGGCGGCAGCCUUCGGUGGCGCGAUAGCGCAAACGUUCUCAACUAUGACACGCAAAACGCGUGCUCCGUUGAAUGGAGUUUAUCAUG [C8G C96A] as the variant, how does the “polymerase ribozyme fitness (log ratio)” value read?
Answer: Its value is -4.07.

Question: Which “polymerase ribozyme fitness (log ratio)” value does the source give for GGAUCUUGUCGAUCUAACAAAUAAGACAAAUCUGGCACAAAGCUUGAGAGCAUCUUCGGAUGCAGAGGGCGCAGCCUUCGGUGGCGCGAUAACGCCAACGUUCUCAACUAUGACACGCAAAACGCGUGCUCCGUUGAAUGGAGUUUAUCAUG [C8G A22U C35G C69G G70C G92A] here?
Answer: The value was ≤ -4.2.

Question: Which “polymerase ribozyme fitness (log ratio)” value does the source give for GGAUCUUGUCGAUCUAACAAAAAAGACAAAUCUGCCACUAAGCUUUAGAGCAUCUUCGGAUGCAGAGCCGGCAGCCUUUGGUAGCGCGAUAGCGCCAACGUACUCAACUAUGACACGCAAAACGCGUGCUCCGUUGAAUGGAGUUUAUCAUG [C8G A39U G46U G68C C79U G83A U102A] here?
Answer: The value was ≤ -4.2.

Question: With GGAUCUUGUCGAUCUAACAAAAAAGACAAAUCUGCCACCAAGCUUGAGAGCAUCUUCGGAUGCAGAGGCGGCAGCCCUCGGUGGCGCGAUAGCGCCAACGUUCGCAACUAUGACCCGCAAAACGCGUGCUCCGUUGAAUGGAGUUUAUCAUG [C8G A39C U77C U104G A115C] as the variant, how does the “polymerase ribozyme fitness (log ratio)” value read?
Answer: The value was ≤ -4.2.

Question: For GGAUCUUGUCGAUCUAACAAAAAAGACAAAUCUGCCACAAUGCUUGAGGGCAUCUUCGGAUGCAGAGGCGGCAGCCUUCGGUGGCGCGAUAGCGUCAACGUUCUCAACUAUGACACGCAAAACGCGUGCUCCGUUGAAUGGAGUUUUUCAUG [C8G A41U A49G C95U A147U], which “polymerase ribozyme fitness (log ratio)” value is on record?
Answer: The value was ≤ -4.2.

Question: Which “polymerase ribozyme fitness (log ratio)” value does the source give for GGAUCUUGUCGAUCGAGUACAAAAGACAAAUGUGCCACAAAGCUUGAGAGCAUCUUCGGAUGCAGAGGCGGCGGCCUUCGGUGGCGCGAUAGUGCCAACGUUCUCAACUAUGACACGCAAAACGUGUGCUCCGUUGAAUGGAGUUUAUCAUG [C8G U15G A17G C18U A20C C32G A73G C93U C125U] here?
Answer: Its value is ≤ -4.2.

Question: For GGAUCUUGUAGAUCUAACAAAAAAGACAAAUCUGCCACACAGCUUGAGAGCAUCUUCGGAUGCAGAAGCGGCAGACUUCGGUGGCGAGAUAGCGCCAACGUUCUCAACUAUGACACGCAAAACGCGUGCUCCGUUGAAUGGAGUUUAUCAUG [C8G C10A A40C G67A C75A C87A], which “polymerase ribozyme fitness (log ratio)” value is on record?
Answer: Its value is ≤ -4.2.

Question: With GGAUCUUGUCGAUCUUACAAAAAAGACAAAUCUGCGACAAAGCUUGAGAGCAUCUUCGGAUGCAGAGGCGGCAGCCUUCGGUGGCGCGAUAGCGCCAACGUUCUCAACUAUGACACGCAAAACGCGUGCUCCGUUGAAUGGAGUUUAUCAUG [C8G A16U C36G] as the variant, how does the “polymerase ribozyme fitness (log ratio)” value read?
Answer: The value was ≤ -4.2.

Question: Which “polymerase ribozyme fitness (log ratio)” value does the source give for GGAUCUUGUCGAUCUAACAAAAGAGACAAAUCUGCCACAGAGCUUGAGAGCAUCUUCGGAUGCAGACGCGGCAGCCUUCGGUGGCGCGAUAGCGCCAAUGUGCUCAACUAUGACACGCAAAACGCGCGCUCCGUUGAAUGGACUUUAUCAUG [C8G A23G A40G G67C C99U U102G U127C G143C] here?
Answer: The value was ≤ -4.2.

Question: For GGAUCUUGUCGAUCUAACAAAAAAGACAAAUCUGCCACAAAGCUUGAGAGCAUCUUCGGAUGCAGAGGCGGCAGCCUUCGCUGGCACGAUAGCGCCAACGUUCUCAACUAUGACACGCAAAACGCGUGCUCAGUUGAAUGGAGUUUAUCAUG [C8G G81C G86A C132A], which “polymerase ribozyme fitness (log ratio)” value is on record?
Answer: Its value is ≤ -4.2.

Question: Which “polymerase ribozyme fitness (log ratio)” value does the source give for GGAUCUUGUCGAUCUAACAAAAAAGACAAAUCUGCCACAAAGCUUGAGAGCAUCUUCGGAUGCAGAGGCGGCAGCCUUCGGUGGCGCGAUAGCGCCAACGUUCUCAACUAUGACACGCAAAACGCGUGCUUCGUUGAAUGGAGGUUAUCAUG [C8G C131U U144G] here?
Answer: Its value is ≤ -4.2.

Question: Which “polymerase ribozyme fitness (log ratio)” value does the source give for GGAUCUUGUCGAUCUAACAAAAAAGACAAAUCUGCCACAAAGCUUGAGAGCAUCUUCGGAUGCAGAGGCGGCAGCCUUCGGUGGCGCGAUAUCGCCAACGUUCUCAACUAUGACACGCAAAACGCGUGCUCCGUUGAAUGGAGUUUAUCAUG [C8G G92U] here?
Answer: Its value is -3.57.
